Where a chain is given by its changes, count along the chain named. Values belong to the binder of their own block, whether it stands above or below them.
Assays:
human IL-36R on cells [1] = biological target: T1, human IL-36R on cells (human, UniProt Q9HB29 20-575); test: cell-based or functional assay
T1 sequence (looked up): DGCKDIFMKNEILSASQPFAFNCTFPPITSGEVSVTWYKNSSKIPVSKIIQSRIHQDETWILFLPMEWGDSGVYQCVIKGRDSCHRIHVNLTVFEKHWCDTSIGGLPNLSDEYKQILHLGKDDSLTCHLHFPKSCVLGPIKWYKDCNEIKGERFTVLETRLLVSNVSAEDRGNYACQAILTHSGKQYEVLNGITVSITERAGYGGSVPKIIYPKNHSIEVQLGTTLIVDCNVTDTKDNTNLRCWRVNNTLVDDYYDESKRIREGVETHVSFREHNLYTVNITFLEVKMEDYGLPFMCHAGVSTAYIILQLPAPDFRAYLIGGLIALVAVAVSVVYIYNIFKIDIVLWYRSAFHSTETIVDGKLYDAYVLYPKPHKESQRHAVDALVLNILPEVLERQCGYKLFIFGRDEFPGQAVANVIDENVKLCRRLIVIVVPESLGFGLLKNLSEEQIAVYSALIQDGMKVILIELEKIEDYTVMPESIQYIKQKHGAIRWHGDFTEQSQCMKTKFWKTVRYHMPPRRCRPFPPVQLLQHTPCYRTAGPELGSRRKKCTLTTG

[2] = biological target: cynomolgus IL-36R on BaF/3 cells (cynomolgus, UniProt A0A2K5WSK9 20-558); test: cell-based or functional assay
human IL-36R on cells [3] = biological target: T1, human IL-36R on cells; test: cell-based or functional assay; remark: listed apart in the source
[4] = biological target: T2, recombinant human IL-36R (ECD) (human, UniProt Q9HB29 20-332); test: SPR (ProteOn), single IL-36R surface coat concentration
T2 construct: range 20-332; also called IL-1RL2; IL-1Rrp2
T2 sequence (looked up): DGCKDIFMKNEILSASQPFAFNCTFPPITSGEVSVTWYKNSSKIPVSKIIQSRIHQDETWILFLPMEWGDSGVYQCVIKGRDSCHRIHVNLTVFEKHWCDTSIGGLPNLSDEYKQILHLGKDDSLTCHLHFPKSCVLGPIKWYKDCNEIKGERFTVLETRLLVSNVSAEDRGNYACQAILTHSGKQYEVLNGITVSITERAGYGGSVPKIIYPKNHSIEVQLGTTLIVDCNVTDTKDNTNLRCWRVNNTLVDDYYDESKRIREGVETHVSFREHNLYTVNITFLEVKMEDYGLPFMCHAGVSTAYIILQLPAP
Protocol: A) Kinetics and binding affinities of anti-IL-36R antibodies binding to recombinant human IL-36R were measured using the Proteon (Bio-Rad, Hercules, Calif.) using material generated from hybridoma following single column purification. […] Binding of the chimeric anti-IL36R IgGs is equivalent to the respective mouse leads.

mouse IL-36R = biological target: T3, mouse IL-36R (mouse, UniProt Q9ERS7 22-338); test: BLI (Fortebio Octet), antibody injected over antigen surface
T3 sequence (looked up): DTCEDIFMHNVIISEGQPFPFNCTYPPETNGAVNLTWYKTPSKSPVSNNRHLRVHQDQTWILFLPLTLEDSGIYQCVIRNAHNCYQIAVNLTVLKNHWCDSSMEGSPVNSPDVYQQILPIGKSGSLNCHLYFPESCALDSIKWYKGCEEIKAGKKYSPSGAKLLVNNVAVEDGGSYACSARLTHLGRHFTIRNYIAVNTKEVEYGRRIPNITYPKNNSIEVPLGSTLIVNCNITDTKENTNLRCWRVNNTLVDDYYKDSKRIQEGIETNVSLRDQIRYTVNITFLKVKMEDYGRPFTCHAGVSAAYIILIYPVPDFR
Protocol: (§1) B) Molecular selectivity over mouse IL-36R and human IL-1R1 The mouse and chimeric anti-IL-36R antibodies were also injected over either a mouse IL-36R or a human IL-1R1 surface at a concentration of 100 nM. The binding signal to mouse IL-36R and to human IL-1R1 for these antibodies measured using the Fortebio Octet (Fortebio, Menlo Park, Calif.) is zero, which indicates these antibodies selectively bind to human IL-36R.

human IL-1R1 = biological target: T4, human IL-1R1 (human, UniProt P14778 18-336, limits assumed); test: as above
T4 construct: also called IL-1RI
T4 sequence (looked up): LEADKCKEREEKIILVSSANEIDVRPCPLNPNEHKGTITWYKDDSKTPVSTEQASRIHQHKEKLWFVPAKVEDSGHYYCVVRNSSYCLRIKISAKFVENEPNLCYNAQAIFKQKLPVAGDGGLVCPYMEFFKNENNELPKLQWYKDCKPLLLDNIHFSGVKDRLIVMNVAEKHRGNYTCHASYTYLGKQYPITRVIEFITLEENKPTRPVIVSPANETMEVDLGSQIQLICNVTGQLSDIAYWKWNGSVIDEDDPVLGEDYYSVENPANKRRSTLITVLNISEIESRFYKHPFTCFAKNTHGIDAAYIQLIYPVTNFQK
Protocol: as §1

[5] = biological target: T2, recombinant human IL-36R (ECD); test: SPR (ProteOn), recombinant human IL-36R at 7 surface densities, global fit
Protocol: A) Kinetics and binding affinities of anti-IL-36R antibodies binding to recombinant human IL-36R were measured using the Proteon (Bio-Rad, Hercules, Calif.) using material generated from hybridoma following single column purification. […] The binding affinities of the mouse antibodies to human IL-36R run at 7 different surface densities (globally fit) is shown in Table 1. Binding of the chimeric anti-IL36R IgGs is equivalent to the respective mouse leads.

human IL-36R on cells [6] = biological target: T1, human IL-36R on cells; test: flow cytometry, HEK293 cells transfected with full-length human IL-36R
Protocol: HEK293 cells transfected with full-length human IL-36R or NCI/ADR-RES cells were passaged for 24 hours prior to staining. Cells were removed from flasks by rinsing with 10 ml of 5 mM EDTA in PBS, and then incubated at 37° C. for 10 min with an additional 10 ml of 5 mM EDTA and 2.5 ml of Accumax to declump/disperse cells. Antibodies were then diluted to specified concentrations in PBS+2% BSA, and cells incubated for 20 min at room temperature. Excess antibody was then washed by adding 200 μl of PBS and then centrifuged. Secondary reagent was then added at 50 μl per well and cells are incubated for 15 min at room temperature and then washed as above. Cells were resuspended in 200 μl PBS and analyzed by flow cytometry.

Sequence of cynomolgus IL-36R on BaF/3 cells (A0A2K5WSK9 entry or part of it): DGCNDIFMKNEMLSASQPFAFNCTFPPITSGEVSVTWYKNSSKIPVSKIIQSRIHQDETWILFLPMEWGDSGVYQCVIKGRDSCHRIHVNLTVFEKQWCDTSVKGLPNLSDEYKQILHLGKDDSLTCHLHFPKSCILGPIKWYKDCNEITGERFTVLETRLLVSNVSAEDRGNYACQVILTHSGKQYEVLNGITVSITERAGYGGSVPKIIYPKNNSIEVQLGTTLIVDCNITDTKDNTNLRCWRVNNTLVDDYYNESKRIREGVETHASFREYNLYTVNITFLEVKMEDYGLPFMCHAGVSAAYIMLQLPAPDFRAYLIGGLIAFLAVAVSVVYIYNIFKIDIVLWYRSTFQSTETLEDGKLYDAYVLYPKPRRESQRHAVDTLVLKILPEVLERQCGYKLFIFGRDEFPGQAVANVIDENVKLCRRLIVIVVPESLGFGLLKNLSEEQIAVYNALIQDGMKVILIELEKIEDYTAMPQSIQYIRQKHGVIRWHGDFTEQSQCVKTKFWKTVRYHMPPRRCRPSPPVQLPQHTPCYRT

IC90, GM-CSF release, NCI/ADR-RES cells, trun-IL-36a (human IL-36R on cells [1]): 4.8 nM | IC90, GM-CSF release, NCI/ADR-RES cells, trun-IL-36b (human IL-36R on cells [1]): 1.4 nM | IC90, GM-CSF release, NCI/ADR-RES cells, trun-IL-36g (human IL-36R on cells [1]): 2 nM | IC90, IL-6 release, NCI/ADR-RES cells, trun-IL-36a (human IL-36R on cells [1]): 19 nM | IC90, IL-6 release, NCI/ADR-RES cells, trun-IL-36b (human IL-36R on cells [1]): 3.8 nM | IC90, IL-6 release, NCI/ADR-RES cells, trun-IL-36g (human IL-36R on cells [1]): 1.9 nM | IC90, IL-8 release, NCI/ADR-RES cells, trun-IL-36a (human IL-36R on cells [1]): 3.3 nM | IC90, IL-8 release, NCI/ADR-RES cells, trun-IL-36b (human IL-36R on cells [1]): 0.6 nM | IC90, IL-8 release, NCI/ADR-RES cells, trun-IL-36g (human IL-36R on cells [1]): 1.4 nM | IC90, pNFκB, NCI/ADR-RES cells, trun-IL-36a (human IL-36R on cells [1]): 3.4 nM | IC90, pNFκB, NCI/ADR-RES cells, trun-IL-36b (human IL-36R on cells [1]): 3.4 nM | IC90, pNFκB, NCI/ADR-RES cells, trun-IL-36g (human IL-36R on cells [1]): 2.5 nM | IC90, pNFκB, BaF/3 cynomolgus IL-36R cells, trun-IL-36a [2]: 0.2 nM | IC90, pNFκB, BaF/3 cynomolgus IL-36R cells, trun-IL-36b [2]: 1.6 nM | IC90, pNFκB, BaF/3 cynomolgus IL-36R cells, trun-IL-36g [2]: 1.5 nM | IC90, IL-8 release, human primary keratinocytes (NHK), trun-IL-36a (human IL-36R on cells [3]): 20.8 nM | IC90, IL-8 release, human primary keratinocytes (NHK), trun-IL-36b (human IL-36R on cells [3]): 46 nM | IC90, IL-8 release, human primary keratinocytes (NHK), trun-IL-36g (human IL-36R on cells [3]): 2.4 nM | IC90, pNFκB, human primary keratinocytes (NHK), trun-IL-36a (human IL-36R on cells [3]): 10.7 nM | IC90, pNFκB, human primary keratinocytes (NHK), trun-IL-36b (human IL-36R on cells [3]): 14.4 nM | IC90, pNFκB, human primary keratinocytes (NHK), trun-IL-36g (human IL-36R on cells [3]): 1.7 nM | Kd [4]: < 0.1 nM | binding result (mouse IL-36R): no binding (tested: 100 nM) | binding result (human IL-1R1): no binding (tested: 100 nM) | Kd [5]: 0.057 nM
B1: antibody 73C5 (antibody, V domains shown)
VH: QVQLKESGPGLVAPSQSLSITCTVSGFSLTNYAVHWVRQFPGKGLEWLGVIWSDGSTDFNAPFKSRLSINKDNSKSQVFFKMNSLQIDDTAIYYCARKGGYSGSWFAYWGQGTLVTVSA
VL: DIVMTQSQKFLSTSVGVRVSVTCKASQDVGTNVLWYQQKIGQSPKPLIYSASYRHSGVPDRFTGSGSGTDFTLIISNVQSEDLAEYFCQQYSRYPLTFGPGTKLELK
notes: Mouse monoclonal from hybridoma; also called 73C5C10; Mouse 73C5

IC90, pNFκB, NCI/ADR-RES cells, trun-IL-36g (human IL-36R on cells [1]): 145 nM | IC90, pNFκB, BaF/3 cynomolgus IL-36R cells, trun-IL-36a [2]: > 4 µM | IC90, pNFκB, BaF/3 cynomolgus IL-36R cells, trun-IL-36b [2]: > 333 nM | IC90, pNFκB, BaF/3 cynomolgus IL-36R cells, trun-IL-36g [2]: > 333 nM | Kd [4]: < 0.1 nM | binding result (mouse IL-36R): no binding (tested: 100 nM) | binding result (human IL-1R1): no binding (tested: 100 nM) | EC50 (human IL-36R on cells [6]): 0.609 nM
B2: antibody 89A12 (antibody, V domains shown)
VH: EVQLQQSGAELVRPGASVRLSCTASGFNIKDDYIHWVRQRPKQGLEWLGRIDPANGNTKYDPRFQDKATITADTSSNTAYLHLSSLTSEDTAVYYCAKSFPDNYYSYDDAFAYWGQGTLVTVSA
VL: DIQMTQSPASQSASLGESVTFSCLASQTIGTWLGWYQQKPGKSPQLLIYRATSLADGVPSRFSGSGSGTNFSFKISSLQAEDLASYYCQQLYSGPYTFGGGTKLEIR
notes: Mouse monoclonal from hybridoma; also called 89A12B8

IC90, pNFκB, NCI/ADR-RES cells, trun-IL-36g (human IL-36R on cells [1]): > 67 nM | IC90, pNFκB, BaF/3 cynomolgus IL-36R cells, trun-IL-36a [2]: > 4 µM | IC90, pNFκB, BaF/3 cynomolgus IL-36R cells, trun-IL-36b [2]: > 333 nM | IC90, pNFκB, BaF/3 cynomolgus IL-36R cells, trun-IL-36g [2]: > 333 nM | Kd [4]: < 0.1 nM | binding result (mouse IL-36R): no binding (tested: 100 nM) | binding result (human IL-1R1): no binding (tested: 100 nM) | EC50 (human IL-36R on cells [6]): 0.532 nM
B3: antibody 67E7 (antibody, V domains shown)
VH: B2 VH with L11F, R19K, L20F, K42E, L48V, D61A, R63K, H82Q, D102N
VL: B2 VL with S22T, A51S, S53T, N70K, E81A, L83F, G94A
notes: Mouse monoclonal from hybridoma; also called 67E7E8

IC90, pNFκB, NCI/ADR-RES cells, trun-IL-36g (human IL-36R on cells [1]): 1.9 nM | IC90, pNFκB, BaF/3 cynomolgus IL-36R cells, trun-IL-36a [2]: > 4 µM | IC90, pNFκB, BaF/3 cynomolgus IL-36R cells, trun-IL-36b [2]: > 333 nM | IC90, pNFκB, BaF/3 cynomolgus IL-36R cells, trun-IL-36g [2]: > 333 nM | Kd [4]: < 0.1 nM | binding result (mouse IL-36R): no binding (tested: 100 nM) | binding result (human IL-1R1): no binding (tested: 100 nM) | EC50 (human IL-36R on cells [6]): 0.426 nM
B4: antibody 76E10 (antibody, V domains shown)
VH: QVQLKESGPVLVAPSQSLSITCTVSGFSLTNYGVHWVRQPPGKGLEWLGVIWPVGSTNYNSALMSRLSIHKDNSKSQVFLRMNSLQTDDTAIYYCAKMDWDDFFDYWGQGTTLTVSS
VL: DIVMTQSQKFMSATVGGRVNITCKASQNVGRAVAWYQQKPGQSPKLLTHSASNRYTGVPDRFTGSGSGTDFTLTITNMQSEDLADYFCQQYSSYPLTFGAGTKLDLK
notes: Mouse monoclonal from hybridoma; also called 76E10E8
